These results are taken from PMC12416549 (2024).

The chains are these.
T1: TNFR1 (Homo sapiens, UniProt P19438)
T1 chain: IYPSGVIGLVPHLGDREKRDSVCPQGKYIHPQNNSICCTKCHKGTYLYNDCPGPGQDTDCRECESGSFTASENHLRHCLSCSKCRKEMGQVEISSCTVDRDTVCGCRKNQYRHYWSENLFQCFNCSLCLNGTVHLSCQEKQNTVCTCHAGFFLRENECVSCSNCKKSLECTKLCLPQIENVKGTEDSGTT

B1: Y37I (designed binder)
chain: MTLQELLREEALRRAEAEAFRYALELLAEKFPEQKEILLDLAEEIESQIRSLSGVDVEDVRKFLDKEWAWVKELLAEHPAELAEVEAARAARLAELRAEVEAKVAA
B2: R61W (designed binder)
chain: MTLQELLREEALRRAEAEAFRYALELLAEKFPEQKEYLLDLAEEIESQIRSLSGVDVEDVWKFLDKEWAWVKELLAEHPAELAEVEAARAARLAELRAEVEAKVAA
B3: Y37A (designed binder)
chain: MTLQELLREEALRRAEAEAFRYALELLAEKFPEQKEALLDLAEEIESQIRSLSGVDVEDVRKFLDKEWAWVKELLAEHPAELAEVEAARAARLAELRAEVEAKVAA
B4: L12V (designed binder)
chain: MTLQELLREEAVRRAEAEAFRYALELLAEKFPEQKEYLLDLAEEIESQIRSLSGVDVEDVRKFLDKEWAWVKELLAEHPAELAEVEAARAARLAELRAEVEAKVAA
B5: E84V (designed binder)
chain: MTLQELLREEALRRAEAEAFRYALELLAEKFPEQKEYLLDLAEEIESQIRSLSGVDVEDVRKFLDKEWAWVKELLAEHPAELAVVEAARAARLAELRAEVEAKVAA
B6: E67F (designed binder)
chain: MTLQELLREEALRRAEAEAFRYALELLAEKFPEQKEYLLDLAEEIESQIRSLSGVDVEDVRKFLDKFWAWVKELLAEHPAELAEVEAARAARLAELRAEVEAKVAA
B7: R89I (designed binder)
chain: MTLQELLREEALRRAEAEAFRYALELLAEKFPEQKEYLLDLAEEIESQIRSLSGVDVEDVRKFLDKEWAWVKELLAEHPAELAEVEAAIAARLAELRAEVEAKVAA
B8: V104I (designed binder)
chain: MTLQELLREEALRRAEAEAFRYALELLAEKFPEQKEYLLDLAEEIESQIRSLSGVDVEDVRKFLDKEWAWVKELLAEHPAELAEVEAARAARLAELRAEVEAKIAA
B9: V100Q (designed binder)
chain: MTLQELLREEALRRAEAEAFRYALELLAEKFPEQKEYLLDLAEEIESQIRSLSGVDVEDVRKFLDKEWAWVKELLAEHPAELAEVEAARAARLAELRAEQEAKVAA
B10: E67M (designed binder)
chain: MTLQELLREEALRRAEAEAFRYALELLAEKFPEQKEYLLDLAEEIESQIRSLSGVDVEDVRKFLDKMWAWVKELLAEHPAELAEVEAARAARLAELRAEVEAKVAA
B11: A76N (designed binder)
chain: MTLQELLREEALRRAEAEAFRYALELLAEKFPEQKEYLLDLAEEIESQIRSLSGVDVEDVRKFLDKEWAWVKELLNEHPAELAEVEAARAARLAELRAEVEAKVAA
B12: R50G (designed binder)
chain: MTLQELLREEALRRAEAEAFRYALELLAEKFPEQKEYLLDLAEEIESQIGSLSGVDVEDVRKFLDKEWAWVKELLAEHPAELAEVEAARAARLAELRAEVEAKVAA
B13: E58K (designed binder)
chain: MTLQELLREEALRRAEAEAFRYALELLAEKFPEQKEYLLDLAEEIESQIRSLSGVDVKDVRKFLDKEWAWVKELLAEHPAELAEVEAARAARLAELRAEVEAKVAA
B14: A69W (designed binder)
chain: MTLQELLREEALRRAEAEAFRYALELLAEKFPEQKEYLLDLAEEIESQIRSLSGVDVEDVRKFLDKEWWWVKELLAEHPAELAEVEAARAARLAELRAEVEAKVAA

The target of this assay is T1, TNFR1. The assay is described as follows: yeast display SC50.
Consider B1, for which the “apparent Kd (screen)” value came out at 22.2 nM.

B2: the “apparent Kd (screen)” value was 3.63 nM.

Regarding B3, the “apparent Kd (screen)” value is 24.4 nM.

Regarding B4, the “apparent Kd (screen)” value came to 0.539 nM.

Take B5: the “apparent Kd (screen)” value came out at 0.49 nM.

With B6, the “apparent Kd (screen)” value came out at 12.5 nM.

Take B7: the “apparent Kd (screen)” value came out at 0.653 nM.

Turning to B8, the “apparent Kd (screen)” value was 0.718 nM.

Turning to B9, the “apparent Kd (screen)” value was determined as 0.718 nM.

Turning to B10, the “apparent Kd (screen)” value was found to be 1.27 nM.

For B11, the “apparent Kd (screen)” value worked out at 0.49 nM.

Take B12: the “apparent Kd (screen)” value came out at 1.05 nM.

For B13, the “apparent Kd (screen)” value was determined as 0.49 nM.

Consider B14, for which the “apparent Kd (screen)” value is 0.539 nM.
